Results reported in the supplement of paper PMC9112550, “Optimization of the antimicrobial peptide Bac7 by deep mutational scanning” (BMC Biology, 2022).
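Further: peptides expressed intracellularly from a pBAD plasmid library in pooled LB shake-flask culture, induced with 0.3% L-arabinose, DNA abundance read by NGS, three biological replicates, DESeq2 with apeglm shrinkage.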

The sequences below were run on Escherichia coli TOP10 (assay: shrunken log2 fold change of peptide-encoding DNA abundance (4.5 h post-induction vs induction); higher = less antimicrobial activity (less host growth inhibition)). Settings: time post-induction: 4.5 h; library: site-saturation at positions 5, 18, 19, 20.
RRIRNRPPRLPRPRPRPTHDPRP was tested, and the “shrunken log2 fold change” value was -0.219. For RRIRGRPPRLPRPRPRPFYQPRP, the “shrunken log2 fold change” value was 0.0158. In the case of RRIRQRPPRLPRPRPRPLWYPRP, the “shrunken log2 fold change” value is reported as -0.367. RRIRLRPPRLPRPRPRPEMHPRP was tested, and the “shrunken log2 fold change” value was -0.132. For RRIRYRPPRLPRPRPRPSTKPRP, the “shrunken log2 fold change” value was -0.225. For RRIRWRPPRLPRPRPRPFQEPRP, the “shrunken log2 fold change” value was -0.0827. In the case of RRIRVRPPRLPRPRPRPMCCPRP, the “shrunken log2 fold change” value is reported as -0.0676. With RRIRRRPPRLPRPRPRPSCWPRP the “shrunken log2 fold change” value was 0.285. With RRIRWRPPRLPRPRPRPRKVPRP the “shrunken log2 fold change” value was 0.302. RRIRPRPPRLPRPRPRPPFCPRP was tested, and the “shrunken log2 fold change” value was 0.317. With RRIRFRPPRLPRPRPRPDMAPRP the “shrunken log2 fold change” value was -0.108. RRIRFRPPRLPRPRPRPKTSPRP was tested, and the “shrunken log2 fold change” value was -0.0999. In the case of RRIRHRPPRLPRPRPRPGPKPRP, the “shrunken log2 fold change” value is reported as -0.0906. In the case of RRIRCRPPRLPRPRPRPITNPRP, the “shrunken log2 fold change” value is reported as -0.449. RRIRDRPPRLPRPRPRPRTAPRP was tested, and the “shrunken log2 fold change” value was 0.445. In the case of RRIRLRPPRLPRPRPRPVPFPRP, the “shrunken log2 fold change” value is reported as 0.123. With RRIRRRPPRLPRPRPRPRHSPRP the “shrunken log2 fold change” value was 0.226. RRIRLRPPRLPRPRPRPCAGPRP was tested, and the “shrunken log2 fold change” value was 0.0736. With RRIRVRPPRLPRPRPRPFVFPRP the “shrunken log2 fold change” value was -0.0359. With RRIRLRPPRLPRPRPRPGVDPRP the “shrunken log2 fold change” value was 0.411. For RRIRIRPPRLPRPRPRPRDCPRP, the “shrunken log2 fold change” value was -0.296. RRIRLRPPRLPRPRPRPHLIPRP was tested, and the “shrunken log2 fold change” value was -0.151. In the case of RRIRRRPPRLPRPRPRPNEPPRP, the “shrunken log2 fold change” value is reported as 0.317. For RRIRDRPPRLPRPRPRPANWPRP, the “shrunken log2 fold change” value was 0.239. RRIRGRPPRLPRPRPRPEWPPRP was tested, and the “shrunken log2 fold change” value was 1.13. With RRIRWRPPRLPRPRPRPDAQPRP the “shrunken log2 fold change” value was 1.48. For RRIRYRPPRLPRPRPRPLISPRP, the “shrunken log2 fold change” value was -0.596. In the case of RRIRSRPPRLPRPRPRPHLCPRP, the “shrunken log2 fold change” value is reported as -0.121. RRIRLRPPRLPRPRPRPEIIPRP was tested, and the “shrunken log2 fold change” value was 0.179. In the case of RRIRHRPPRLPRPRPRPMRDPRP, the “shrunken log2 fold change” value is reported as 0.684. In the case of RRIRIRPPRLPRPRPRPWYMPRP, the “shrunken log2 fold change” value is reported as -0.775. For RRIRDRPPRLPRPRPRPTPLPRP, the “shrunken log2 fold change” value was 0.484. RRIRWRPPRLPRPRPRPWWPPRP was tested, and the “shrunken log2 fold change” value was 0.19. RRIRCRPPRLPRPRPRPQMPPRP was tested, and the “shrunken log2 fold change” value was -0.0931. With RRIRVRPPRLPRPRPRPYELPRP the “shrunken log2 fold change” value was -0.401. With RRIRNRPPRLPRPRPRPNPPPRP the “shrunken log2 fold change” value was 0.143. With RRIRGRPPRLPRPRPRPQEMPRP the “shrunken log2 fold change” value was 0.0954. In the case of RRIRHRPPRLPRPRPRPRAMPRP, the “shrunken log2 fold change” value is reported as 0.592. With RRIRIRPPRLPRPRPRPIYTPRP the “shrunken log2 fold change” value was -0.728. RRIRARPPRLPRPRPRPTMIPRP was tested, and the “shrunken log2 fold change” value was 0.00226. RRIRARPPRLPRPRPRPQGTPRP was tested, and the “shrunken log2 fold change” value was 0.451. RRIRVRPPRLPRPRPRPSASPRP was tested, and the “shrunken log2 fold change” value was -0.2. In the case of RRIRERPPRLPRPRPRPALCPRP, the “shrunken log2 fold change” value is reported as 0.0446. For RRIRARPPRLPRPRPRPNVRPRP, the “shrunken log2 fold change” value was 0.0345. For RRIRPRPPRLPRPRPRPPAIPRP, the “shrunken log2 fold change” value was 0.325. In the case of RRIRHRPPRLPRPRPRPIRQPRP, the “shrunken log2 fold change” value is reported as 0.0104. With RRIRGRPPRLPRPRPRPKWAPRP the “shrunken log2 fold change” value was 0.155. RRIRPRPPRLPRPRPRPTGNPRP was tested, and the “shrunken log2 fold change” value was 0.141. For RRIRLRPPRLPRPRPRPFMQPRP, the “shrunken log2 fold change” value was 0.0179. RRIRFRPPRLPRPRPRPDIIPRP was tested, and the “shrunken log2 fold change” value was 0.0368. For RRIRERPPRLPRPRPRPLVKPRP, the “shrunken log2 fold change” value was -0.575. In the case of RRIRNRPPRLPRPRPRPRHDPRP, the “shrunken log2 fold change” value is reported as 0.0353. For RRIRGRPPRLPRPRPRPFLWPRP, the “shrunken log2 fold change” value was 0.996. For RRIRWRPPRLPRPRPRPGNHPRP, the “shrunken log2 fold change” value was -0.163. With RRIRMRPPRLPRPRPRPWHEPRP the “shrunken log2 fold change” value was -0.126. For RRIRTRPPRLPRPRPRPDHDPRP, the “shrunken log2 fold change” value was 0.0257. With RRIRTRPPRLPRPRPRPLAKPRP the “shrunken log2 fold change” value was 0.0419. With RRIRCRPPRLPRPRPRPSRRPRP the “shrunken log2 fold change” value was -0.181. RRIRCRPPRLPRPRPRPWNSPRP was tested, and the “shrunken log2 fold change” value was -0.529. RRIRERPPRLPRPRPRPIHTPRP was tested, and the “shrunken log2 fold change” value was 0.0013. For RRIRHRPPRLPRPRPRPILWPRP, the “shrunken log2 fold change” value was -0.0569. In the case of RRIRERPPRLPRPRPRPPTNPRP, the “shrunken log2 fold change” value is reported as 0.0754. In the case of RRIRHRPPRLPRPRPRPPEPPRP, the “shrunken log2 fold change” value is reported as 0.113. With RRIRDRPPRLPRPRPRPEKMPRP the “shrunken log2 fold change” value was -0.00458. For RRIRTRPPRLPRPRPRPLRCPRP, the “shrunken log2 fold change” value was 0.108. In the case of RRIRVRPPRLPRPRPRPNPSPRP, the “shrunken log2 fold change” value is reported as 0.0073. RRIRWRPPRLPRPRPRPAPLPRP was tested, and the “shrunken log2 fold change” value was 0.512. In the case of RRIRGRPPRLPRPRPRPQLVPRP, the “shrunken log2 fold change” value is reported as 0.0859. RRIRSRPPRLPRPRPRPMEYPRP was tested, and the “shrunken log2 fold change” value was -0.00133. With RRIRNRPPRLPRPRPRPNFWPRP the “shrunken log2 fold change” value was 0.0138. RRIRARPPRLPRPRPRPFCGPRP was tested, and the “shrunken log2 fold change” value was -0.0184. With RRIRLRPPRLPRPRPRPKQDPRP the “shrunken log2 fold change” value was -0.199. In the case of RRIRMRPPRLPRPRPRPRFLPRP, the “shrunken log2 fold change” value is reported as -0.00457. For RRIRHRPPRLPRPRPRPASAPRP, the “shrunken log2 fold change” value was 0.0183. RRIRARPPRLPRPRPRPIGLPRP was tested, and the “shrunken log2 fold change” value was 0.076.
